Biological target: CHO derived N' FLAG-mNR6 (murine NR6 with an N-terminal FLAG sequence) (mouse) (UniProt Q9JM58)
Experiment: BiaCore biosensor, M2 on the sensorchip; concentrated CHO conditioned medium after M2 affinity column

Chain of UniProt Q9JM58 (Q9JM58 other isoform, or with tags, fused parts or gaps limits assumed): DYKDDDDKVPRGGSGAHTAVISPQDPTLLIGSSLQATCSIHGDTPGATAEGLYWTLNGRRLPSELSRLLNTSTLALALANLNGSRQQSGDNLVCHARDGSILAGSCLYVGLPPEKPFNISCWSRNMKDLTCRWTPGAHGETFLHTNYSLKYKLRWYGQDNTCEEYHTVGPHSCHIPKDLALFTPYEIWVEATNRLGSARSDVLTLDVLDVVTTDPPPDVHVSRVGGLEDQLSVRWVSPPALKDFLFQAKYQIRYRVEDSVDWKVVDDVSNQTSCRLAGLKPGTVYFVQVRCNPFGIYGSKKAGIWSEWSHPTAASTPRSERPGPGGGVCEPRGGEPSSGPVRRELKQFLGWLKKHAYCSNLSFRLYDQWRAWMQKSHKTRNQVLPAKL

anti FLAG peptide M2 antibody (Kodak Eastman, USA)
M2 binding remaining in the unbound fraction after M2 affinity resin: 20%

Source: patent US20020045741A1
